Results on two molecules are retold here after patent publication US20220251211A1 (BEIJING SINOTAU BIO PHARMACEUTICALS TECHNOLOGY, published 2022).

For assay [1], the target named is T1, Mouse PD-L1-his (50010-MO8H, Sino Biological) (mouse, UniProt Q9EP73 19-238).
T1 construct: Bought reagent; also called murine PD-L1; soluble mouse PD-L1; not shown: His tag
Kind of assay: ELISA, hu1F11 on soluble mouse PD-L1, luminescence as percent of the highest value. The text has this: Y-axis is the relative luminescence index generated by antibody/antigen binding and x-axis is the logarithm of antibody concentrations (ng/ml).

For assay [2], the target named is T2, human PD-L1 on the cell surface (SP2/0 PD-L1 cells stably expressing human PD-L1); also human tumor cell lines … (human, UniProt Q9NZQ7 19-290).
T2 construct: whole, on cells; also called membrane huPD-L1; cell surface PD-L1
The assay can be described thus: flow cytometry on SP2/0 PD-L1 cells pre-incubated with biotin-huPD-1-hFc; bound antibody detected with anti-human kappa-APC. Background: In flow cytometry, cells or beads pass a laser one at a time.

The target of assay [3] is T2, human PD-L1 on the cell surface (SP2/0 …). Kind of assay: flow cytometry, displacement of pre-bound biotin-huPD-1-hFc from SP2/0 PD-L1 cells, remaining PD-1 detected with streptavidin-FITC.
Assay [4] has as its target T3, Cynomolgus PD-L1-his (90251-C08H, Sino Biological) (cynomolgus, UniProt G7PSE7 19-238).
T3 construct: Bought reagent; also called monkey PD-L1; soluble monkey PD-L1
Kind of assay: ELISA, recombinant cynomolgus PD-L1, APC-labeled m1F11. For orientation: In an ELISA, binding on a coated surface is turned into a signal by an enzyme label.

In assay [5] the target is T2, human PD-L1 on the cell surface (SP2/0 …). Kind of assay: flow cytometry, APC-labeled m1F11 on SP2/0 PD-L1 cells.
For assay [6], the target named is T4, Human PD-L1-hFc (B3040, Biointron Biological Inc.) (human, UniProt Q9NZQ7 19-238, limits assumed).
T4 construct: also called recombinant human PD-L1-Fc; hu-PD-L1-Fc; not shown: human Fc of the bought fusion
Kind of assay: ELISA, recombinant human PD-L1, APC-labeled m1F11; recombinant human PD-L1, ELISA.

Assay [7] concerns the target T1, Mouse PD-L1-his (50010-MO8H, Sino …). Kind of assay: ELISA, m1F11 on recombinant mouse PD-L1, luminescence as percent of the highest value.

T4 sequence (Q9NZQ7 19-238 limits assumed): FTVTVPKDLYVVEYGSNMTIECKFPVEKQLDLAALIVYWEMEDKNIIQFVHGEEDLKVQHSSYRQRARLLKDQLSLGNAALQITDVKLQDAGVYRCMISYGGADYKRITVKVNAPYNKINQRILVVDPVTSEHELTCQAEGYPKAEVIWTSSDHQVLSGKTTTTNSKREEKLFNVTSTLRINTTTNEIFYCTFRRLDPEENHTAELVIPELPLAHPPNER
T3 sequence (G7PSE7 entry or part of it C08H C08H limits assumed): as the sequence (Q9NZQ7 19-238 limits assumed) above, with A33T, A34S, S62N, R68Q, Q82R, F173L, T185A, T192I, H215L counted along it

B1: humanized 1F11 (hu1F11) (antibody, human IgG1, kappa, N297A, V domains shown)
VH: QVQLQQSGAELVKPGASVKLSCKTSGFTFSSSYISWVKQSSGQGLEWIAWIYAGTGGTGYNQKFTGRASITVDTSTSTAYMQLSSLTSEDTAIYYCAISASYRYDDLFAYWGQGTLVTVSS
VL: QIVLTQSPASVSASPGEKVTITCSASSSVSSVHWYQQKSGTSPKRWIYDTSKLASGVPARFSGSGSGTSYSLTISSMETEDVATYYCQQWNSNPPTFGTGTKLEIKR
notes: Expressed in 293T cells; also called huIF11; humanized IF11
Usually EC50 (read off the curve) stands for the concentration giving half of the maximal effect. For the molecule B1, the binding result in assay [1] is “no binding (tested: log 3.6 on the axis (about 4000 ng/ml))”. Further, in assay [2], the concentration for a half-maximal effect (EC50 (read off the curve)) is approximately 0.3 µg/mL. Besides, the “IC50 (read off the curve)” value in assay [3] was approximately 0.9 µg/mL.

B2: m1F11 (murine anti-PD-L1 antibody from hybridoma clone 1F11) (antibody, V domains shown)
VH: QGQMQQSGAELVKPGASVKLSCKTSGFTFSSSYISWLKQKSGQSLEWIAWIYAGTGGTGYNQKFTGKAQLTVDTSSSTAYMQFSSLTTEDSAIYYCAISASYRYDDLFAYWGQGTLVTVSA
VL: QIVLTQSPAIMSASPGEKVTMTCSASSSVSSMHWYQQKSGTSPKRWIYDTSKLASGVPARFSGSGSGTSYSLTISSMETEDAATYYCQQWNSNPPTFGAGTKLELK
notes: Recombinant murine antibody expressed in CHO-S cells and used APC-labeled in the assays; also called 1F11-APC; murine version 1F11
In general, EC50 refers to the concentration that produces a half-maximal response. Regarding B2, the EC50 in assay [4] amounted to 0.0464 µg/mL; in assay [5] it was 0.0629 µg/mL; in assay [6] it was 0.0393 µg/mL. Besides, the binding result in assay [7] was “no binding (tested: log 3.9 on the axis (about 8000 ng/ml))”.
